Molecular target: rat GLP-1 receptor (rat) (UniProt P32301)
Sequence (P32301 22-463): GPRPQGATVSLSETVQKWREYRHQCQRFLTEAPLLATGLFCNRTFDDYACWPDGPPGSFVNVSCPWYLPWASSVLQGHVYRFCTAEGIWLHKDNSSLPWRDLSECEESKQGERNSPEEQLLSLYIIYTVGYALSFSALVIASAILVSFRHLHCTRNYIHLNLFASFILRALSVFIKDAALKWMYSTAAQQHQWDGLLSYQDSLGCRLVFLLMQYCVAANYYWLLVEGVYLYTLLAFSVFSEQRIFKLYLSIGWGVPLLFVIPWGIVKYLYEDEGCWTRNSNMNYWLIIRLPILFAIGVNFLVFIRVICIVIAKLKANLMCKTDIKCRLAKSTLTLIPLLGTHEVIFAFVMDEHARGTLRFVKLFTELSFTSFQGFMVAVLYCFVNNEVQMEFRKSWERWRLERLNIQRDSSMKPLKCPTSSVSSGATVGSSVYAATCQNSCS

[Leu^14]exenatide (peptide) showed an EC50, cAMP in 6–23 clone 6 cells (GLP-1 Receptor Functional Assay, 0.1% BSA) of 6 pM.

Reference: PMC3913652
